{"source": "IntAct's records for PubMed 19487680", "key": {"sgt1b_arath SGT1B": {"molecular_target": "sgt1b_arath SGT1B (UniProt Q9SUT5)", "sequence (Q9SUT5 whole entry)": "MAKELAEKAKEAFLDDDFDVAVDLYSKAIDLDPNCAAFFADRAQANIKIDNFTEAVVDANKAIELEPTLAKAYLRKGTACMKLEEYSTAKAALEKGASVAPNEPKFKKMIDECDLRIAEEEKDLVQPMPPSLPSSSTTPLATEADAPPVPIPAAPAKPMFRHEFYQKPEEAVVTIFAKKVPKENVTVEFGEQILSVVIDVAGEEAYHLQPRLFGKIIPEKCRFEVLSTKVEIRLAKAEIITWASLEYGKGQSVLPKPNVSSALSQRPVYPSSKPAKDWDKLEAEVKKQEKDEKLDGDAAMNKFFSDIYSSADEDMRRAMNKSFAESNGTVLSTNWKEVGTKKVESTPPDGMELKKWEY"}, "rar1_arath RAR1": {"molecular_target": "rar1_arath RAR1 (UniProt Q9SE33)", "sequence (Q9SE33 whole entry)": "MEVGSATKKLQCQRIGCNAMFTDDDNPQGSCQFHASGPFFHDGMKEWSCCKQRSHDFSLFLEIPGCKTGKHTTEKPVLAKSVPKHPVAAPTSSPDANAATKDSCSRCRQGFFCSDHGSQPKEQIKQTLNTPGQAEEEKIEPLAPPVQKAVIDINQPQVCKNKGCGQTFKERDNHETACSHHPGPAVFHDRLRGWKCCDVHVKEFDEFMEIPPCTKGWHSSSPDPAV"}}}
{"substance": "Heat shock protein 90-2 (Arabidopsis thaliana (Mouse-ear cress)), P55737 A42T", "values": [{"measurement": "effect of a mutation on the interaction", "setting": "sgt1b_arath SGT1B", "value": "disrupting interaction strength"}, {"measurement": "effect of a mutation on the interaction", "setting": "rar1_arath RAR1", "value": "disrupting interaction strength"}]}
{"substance": "Heat shock protein 90-2 (Arabidopsis thaliana (Mouse-ear cress)), P55737 R337C", "values": [{"measurement": "effect of a mutation on the interaction", "setting": "sgt1b_arath SGT1B", "value": "decreasing interaction strength"}, {"measurement": "effect of a mutation on the interaction", "setting": "rar1_arath RAR1", "value": "disrupting interaction strength"}]}
{"substance": "Heat shock protein 90-2 (Arabidopsis thaliana (Mouse-ear cress)), P55737 S100F", "values": [{"measurement": "effect of a mutation on the interaction", "setting": "sgt1b_arath SGT1B", "value": "disrupting interaction strength"}]}
{"substance": "Heat shock protein 90-2 (Arabidopsis thaliana (Mouse-ear cress)), P55737 G95E", "values": [{"measurement": "effect of a mutation on the interaction", "setting": "sgt1b_arath SGT1B", "value": "disrupting interaction strength"}, {"measurement": "effect of a mutation on the interaction", "setting": "rar1_arath RAR1", "value": "decreasing interaction strength"}]}
{"substance": "Heat shock protein 90-2 (Arabidopsis thaliana (Mouse-ear cress)), P55737 D80N", "values": [{"measurement": "effect of a mutation on the interaction", "setting": "sgt1b_arath SGT1B", "value": "disrupting interaction strength"}, {"measurement": "effect of a mutation on the interaction", "setting": "rar1_arath RAR1", "value": "disrupting interaction strength"}]}
